In patent publication US7056701:

Molecular target: formaldehyde-fixed human platelets
Test: inhibition of vWF/botrocetin-induced agglutination of fixed human platelets

IC50 [nM]	Substance
20	HSA-vWF 470-713 C471,474→G
< 10	HSA-vWF 470-704 C471,474→G
